This note sets out measurements from US20200392227A1 (LYVGEN BIOPHARMA, published 2020).

The target of assay [1] is T1, human FcγRIIA(R131) expressed on CHO cells (human, UniProt P12318 34-317).
T1 construct: whole, on cells
T1 sequence (looked up): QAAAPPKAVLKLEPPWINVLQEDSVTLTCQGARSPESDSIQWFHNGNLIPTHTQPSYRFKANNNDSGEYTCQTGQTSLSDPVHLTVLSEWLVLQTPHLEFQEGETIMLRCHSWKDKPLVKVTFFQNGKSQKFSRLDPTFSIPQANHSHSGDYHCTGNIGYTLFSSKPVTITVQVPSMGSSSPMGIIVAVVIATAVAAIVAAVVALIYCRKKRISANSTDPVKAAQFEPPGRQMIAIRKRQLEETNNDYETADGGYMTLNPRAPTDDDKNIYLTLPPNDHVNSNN
The assay can be described thus: FACS, CHO cells expressing FcγRIIA(R131).

Assay [2] deals with T2, human FcγRIIA(H131) expressed on CHO cells (human, UniProt P12318 34-317).
T2 construct: whole, on cells
T2 sequence (looked up): T1 sequence (looked up) with R134H
The assay can be described thus: FACS, CHO cells expressing FcγRIIA(H131). As to the method:
(§1) FIGS. 1A-1W are charts showing binding activity of various IgG variants as indicated to different types of Fcγ receptors expressed on CHO-K1 cells at the various concentrations as indicated. The concentrations of each IgG variant, from left to right, are 0 μg/ml, 0.3 μg/ml, 1 μg/ml, 3 μg/ml, and 10 μg/ml in FIGS. 1A-1C, 1E-J, 1L-1M, 1P-1R, and 1T-1V. For FIGS. 1D, 1K, 10, 1S, and 1w the bars, from left to right, correspond to the following concentrations of IgG variant: 0.3 μg/ml, 1 μg/ml, 3 μg/ml, and 10 μg/ml.
(§2) For FACS analysis of the IgG mutants' binding to different FcγRs, FcγR overexpressing CHO cells were harvested using trypsin-EDTA and were suspended in cold staining buffer (3% BSA in PBS). Test IgG mutants, which were diluted in staining buffer, were added into the cells. The mixture was incubated 4° C. for 2 hours, and then washed twice with cold staining buffer and re-suspended in PE-labeled anti-human IgG followed by incubation at 4° C. for 2 hours. The mixture was washed twice with staining buffer and re-suspended in 2% PFA in PBS for FACS.

Assay [3] has as its target T3, human FcRIIIA-V158 protein (MednaBio, E1035) (human, UniProt P08637 17-208).
T3 construct: Bought; also called FcγRIIIA(V); FcgRIIIA(V)
Put plainly: BLI. In short, it runs like this: (§3)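 Binding was measured by biolayer interferometry on an Octet Red96 System, with commercial human Fc receptor proteins loaded at 20 μg/mL onto anti-penta-HIS biosensors. Sensors were dipped into an 8-point 1:3 dilution series of test IgG starting at 300 nM in PBS with 0.1% BSA and 0.02% Tween-20. Fcγ receptor assays ran at pH 7.2 and FcRn assays at pH 6. Kd, kon and koff came from global fitting to a 1:1 binding model.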

Assay [4] has as its target T4, human FcRn protein (MednaBio, E1032) (human, UniProt P55899 24-297; P61769 21-119).
T4 construct: Bought; assays at pH 6
The assay can be described thus: BLI. Summed up: as §3

The target of assay [5] is T5, human FcRIIB/C protein (MednaBio, E1034) (human, UniProt P31994 43-217, limits assumed).
T5 construct: Bought as FcRIIB/C; also called FcγRIIB; CD32B
T5 sequence (looked up): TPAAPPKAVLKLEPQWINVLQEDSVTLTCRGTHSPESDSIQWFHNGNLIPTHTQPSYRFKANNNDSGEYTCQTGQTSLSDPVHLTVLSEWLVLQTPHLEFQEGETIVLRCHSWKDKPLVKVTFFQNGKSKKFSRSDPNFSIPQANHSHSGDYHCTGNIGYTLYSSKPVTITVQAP
The assay can be described thus: BLI. Summed up:
as §3

Assay [6] has as its target T6, human FcRIIA protein (MednaBio, E1033) (human, UniProt P12318 34-218, limits assumed).
T6 construct: Bought; also called FcγRIIA
T6 sequence (looked up): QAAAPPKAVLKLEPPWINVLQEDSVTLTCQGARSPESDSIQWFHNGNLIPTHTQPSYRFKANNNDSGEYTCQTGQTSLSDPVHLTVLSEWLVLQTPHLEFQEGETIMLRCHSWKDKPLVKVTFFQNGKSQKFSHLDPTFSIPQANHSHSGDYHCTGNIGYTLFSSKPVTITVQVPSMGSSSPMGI
The assay can be described thus: BLI. In short, it runs like this:
as §3

The target of assay [7] is T7, human FcRI protein (MednaBio, E1031) (human, UniProt P12314 16-288, limits assumed).
T7 construct: Bought; loaded on anti-penta-HIS biosensors; also called FcγRI
T7 sequence (P12314 16-288 limits assumed): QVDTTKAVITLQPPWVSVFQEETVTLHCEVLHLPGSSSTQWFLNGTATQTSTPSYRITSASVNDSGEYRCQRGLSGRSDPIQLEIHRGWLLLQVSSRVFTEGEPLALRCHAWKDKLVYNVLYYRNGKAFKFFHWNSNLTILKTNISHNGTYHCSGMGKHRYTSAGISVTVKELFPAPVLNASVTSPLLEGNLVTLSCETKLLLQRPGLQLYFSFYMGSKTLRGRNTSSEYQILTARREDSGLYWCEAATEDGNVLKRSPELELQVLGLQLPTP
Put plainly: BLI. In short, it runs like this: as §3

Assay [8] deals with T8, human FcRIIIA-F158 protein (MednaBio, E1036) (human, UniProt P08637 17-208).
T8 construct: Bought; also called FcγRIIIA(F)
T8 sequence (P08637 17-208 limits assumed): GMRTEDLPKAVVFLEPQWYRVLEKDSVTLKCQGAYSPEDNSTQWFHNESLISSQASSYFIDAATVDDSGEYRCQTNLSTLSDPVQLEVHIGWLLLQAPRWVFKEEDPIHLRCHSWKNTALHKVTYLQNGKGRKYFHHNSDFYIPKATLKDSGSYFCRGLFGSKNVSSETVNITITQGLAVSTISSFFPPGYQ
Put plainly: BLI. Summed up:
as §3

Assay [9] deals with T9, human FcRIIIB protein (MednaBio, E1037) (human, UniProt O75015 17-200).
T9 construct: Bought; also called FcγRIIIB; FcgRIIIB
T9 sequence (O75015 17-200 limits assumed): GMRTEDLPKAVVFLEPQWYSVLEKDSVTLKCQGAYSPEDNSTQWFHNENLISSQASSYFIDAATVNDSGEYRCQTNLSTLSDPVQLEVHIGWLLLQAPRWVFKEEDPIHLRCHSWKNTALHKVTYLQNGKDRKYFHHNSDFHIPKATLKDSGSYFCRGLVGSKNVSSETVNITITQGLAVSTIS
The assay can be described thus: BLI. In short, it runs like this: as §3

Assay [10] has as its target T10, human FcγRIIC expressed on CHO cells (human, UniProt P31995 43-323).
T10 construct: whole, on cells
T10 sequence (looked up): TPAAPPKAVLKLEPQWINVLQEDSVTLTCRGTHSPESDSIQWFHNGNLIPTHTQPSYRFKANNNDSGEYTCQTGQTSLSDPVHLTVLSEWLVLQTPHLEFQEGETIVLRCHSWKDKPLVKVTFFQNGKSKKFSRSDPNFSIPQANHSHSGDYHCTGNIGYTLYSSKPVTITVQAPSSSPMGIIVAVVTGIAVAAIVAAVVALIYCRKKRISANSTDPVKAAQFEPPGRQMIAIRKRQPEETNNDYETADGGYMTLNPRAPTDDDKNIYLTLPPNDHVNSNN
The assay can be described thus: FACS, CHO cells expressing FcγRIIC. As to the method: as §2

The target of assay [11] is T3, human FcRIIIA-V158 protein (MednaBio, …). The assay can be described thus: BLI. In short, it runs like this: as §3
The source holds these as a separate data set.

Assay [12] deals with T4, human FcRn protein (MednaBio, E1032). Put plainly: BLI. Summed up: as §3
The source holds these as a separate data set.

The target in assay [13] is T5, human FcRIIB/C protein (MednaBio, E1034). Put plainly: BLI. Summed up:
as §3
The source holds these as a separate data set.

Assay [14] concerns the target T6, human FcRIIA protein (MednaBio, E1033). The assay can be described thus: BLI. Summed up: as §3
The source holds these as a separate data set.

Assay [15] addresses T7, human FcRI protein (MednaBio, E1031). Put plainly: BLI. Summed up:
as §3
The source holds these as a separate data set.

In assay [16] the target is T8, human FcRIIIA-F158 protein (MednaBio, …). Put plainly: BLI. Summed up:
as §3
This is another data set of the same source.

Assay [17] deals with T9, human FcRIIIB protein (MednaBio, E1037). Put plainly: BLI. Summed up:
as §3
The source holds these as a separate data set.

Assay [18] deals with T1, human FcγRIIA(R131) expressed on CHO …. Put plainly: FACS, CHO cells expressing FcγRIIA(R131). The procedure:
as §1, §2
This is another data set of the same source.

Where a chain is given by its changes, count along the chain named. Where two headings read alike, the source gives them in different places.

T3 sequence (P08637 17-208 F176V): as the sequence (P08637 17-208 limits assumed) above, with F160V counted along it
T4 sequence (P55899 24-297 limits assumed, form in doubt, chain 1 of 2): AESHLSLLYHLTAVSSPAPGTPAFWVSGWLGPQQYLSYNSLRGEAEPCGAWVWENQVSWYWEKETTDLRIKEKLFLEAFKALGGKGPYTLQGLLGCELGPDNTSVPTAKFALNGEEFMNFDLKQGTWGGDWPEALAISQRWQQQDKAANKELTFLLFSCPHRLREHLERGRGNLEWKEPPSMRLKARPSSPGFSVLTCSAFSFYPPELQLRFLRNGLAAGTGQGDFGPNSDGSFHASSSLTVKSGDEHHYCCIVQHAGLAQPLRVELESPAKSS
T4 sequence (P61769 21-119 limits assumed, form in doubt, chain 2 of 2): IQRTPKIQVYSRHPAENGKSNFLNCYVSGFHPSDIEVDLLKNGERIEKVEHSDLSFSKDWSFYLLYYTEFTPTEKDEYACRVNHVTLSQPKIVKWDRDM

B1: anti-CD137 IgG1 with Fc variant G1m25 (antibody)
heavy: EVQLVQSGAEVKKPGESLRISCKGSGYSFSTYWISWVRQMPGKGLEWMGKIYPGDSYTNYSPSFQGQVTISADKSISTAYLQWSSLKASDTAMYYCARGYGIFDYWGQGTLVTVSSASTKGPSVFPLAPSSKSTSGGTAALGCLVKDYFPEPVTVSWNSGALTSGVHTFPAVLQSSGLYSLSSVVTVPSSSLGTQTYICNVNHKPSNTKVDKKVEPKSCDKTHTCPPCPAPELLGPSVFLFPPKPKDTLMISRTPEVTCVVVDVSHEDPEEKFNWYVDGVEVHNAKTKPREEQYNSTYRVVSVLTVLHQDWLNGKEYKCKVSNKALPAPIEKTISKAKGQPREPQVYTLPPSREEMTKNQVSLTCLVKGFYPSDIAVEWESNGQPENNYKTTPPVLDSDGSFFLYSKLTVDKSRWQQGNVFSCSVMHEALHNHYTQKSLSLSPGK
light: SYELTQPPSVSVSPGQTASITCSGDNIGDQYAHWYQQKPGQSPVLVIYQDKNRPSGIPERFSGSNSGNTATLTISGTQAMDEADYYCATYTGFGSLAVFGGGTKLTVLGQPKAAPSVTLFPPSSEELQANKATLVCLISDFYPGAVTVAWKADSSPVKAGVETTTPSKQSNNKYAASSYLSLTPEQWKSHRSYSCQVTHEGSTVEKTVAPTECS
notes: copies: 2 + 2
As to B1, the binding result is given as “no binding (tested: 10 ug/ml)” in assay [1]; “no binding (tested: 10 ug/ml)” in assay [2]; “no binding (tested: 300 nM)” in assay [3]; “no binding (tested: 300 nM)” in assay [5]; “no binding (tested: 300 nM)” in assay [6]; “no binding (tested: 300 nM)” in [7]. Also, the binding result in assay [8] is “no binding (tested: 300 nM)”; in assay [9], “no binding (tested: 300 nM)”; in [10], “no binding (tested: 10 ug/ml)”. The molecule further returned a Kd in assay [4] of 15 nM. The molecule also yielded a koff in assay [4] of 0.0093 s⁻¹. In assay [4], this molecule yielded a kon of 620000 M⁻¹ s⁻¹.

B2: anti-CD137 IgG4 with Fc variant G4m30 (antibody)
heavy: EVQLVQSGAEVKKPGESLRISCKGSGYSFSTYWISWVRQMPGKGLEWMGKIYPGDSYTNYSPSFQGQVTISADKSISTAYLQWSSLKASDTAMYYCARGYGIFDYWGQGTLVTVSSASTKGPSVFPLAPCSRSTSESTAALGCLVKDYFPEPVTVSWNSGALTSGVHTFPAVLQSSGLYSLSSVVTVPSSSLGTKTYTCNVDHKPSNTKVDKRVESKYGPPCPPCPAPEFLPSVFLFPPKPKDTLMISRTPEVTCVVVDVSQEDPEVQFNWYVDGVEVHNAKTKPREEQFNSTYRVVSVLTVLHQDWLNGKEYKCKVSNKGLPSSIEKTISKAKGQPREPQVYTLPPSQEEMTKNQVSLTCLVKGFYPSDIAVEWESNGQPENNYKTTPPVLDSDGSFFLYSRLTVDKSRWQEGNVFSCSVMHEALHNHYTQKSLSLSLGK
light: B1 light
notes: also called G430; copies: 2 + 2
On to B2, for which the Kd amounted to 217 nM in [11]; 7.61 nM in assay [12]; 2220 nM in assay [13]; 977 nM in [14]; 528 nM in [15]; 284 nM in assay [16]. This molecule had a Kd in assay [17] of 216 nM. Further, the koff in assay [11] came out at 0.309 s⁻¹; in [12] it was 0.0133 s⁻¹; in assay [13], 0.118 s⁻¹; in assay [14], 0.234 s⁻¹; in assay [15], 0.193 s⁻¹; in [16] it was 0.303 s⁻¹. This molecule had a koff in [17] of 0.297 s⁻¹. The kon in assay [11] amounted to 1.42e+06 M⁻¹ s⁻¹; in assay [12], 1.75e+06 M⁻¹ s⁻¹; in assay [13], 53600 M⁻¹ s⁻¹; in assay [14] it was 240000 M⁻¹ s⁻¹; in [15], 365000 M⁻¹ s⁻¹; in assay [16], 1.06e+06 M⁻¹ s⁻¹. The kon in assay [17] came out at 1.37e+06 M⁻¹ s⁻¹. Further, in assay [18], the binding result is given as “no binding (tested: 10 ug/ml)”.
